The source of these data is paper PMC7904728, “ITSN1 regulates SAM68 solubility through SH3 domain interactions with SAM68 proline-rich motifs”.

The data set has as its target ITSN1 SH3D-His (UniProt Q15811-2 1063-1150). Description: NMR; 300 uM SH3D, 1:1.2 molar ratio; shift perturbations in eight residues; EMSA: 20 mM Tris-HCl pH 7.4, 50 mM KCl, 1 mM Mg, room temperature, 5 min, 0.7% agarose 0.5x TBE; NMR: 298 K, protein dialyzed in 12 mM potassium. Particulars: protein: recombinant; tags: His (pET22b); single strand. (In general: In EMSA bound probe runs differently from free probe, usually more slowly.)

Chain of ITSN1 SH3D-His (Q15811 1063-1150): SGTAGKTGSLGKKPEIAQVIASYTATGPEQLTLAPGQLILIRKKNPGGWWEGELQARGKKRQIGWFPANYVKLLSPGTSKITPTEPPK

B1: CA6 (ssDNA)
DNA: CACACACACACA
B1: the binding result is given as “binds”.

B2: T12 (ssDNA)
DNA: TTTTTTTTTTTT
Take B2: the binding result is listed as “binds”.
